Results taken from publication PMC1310897.

What was measured:
Experiment in all cases: fluorescence polarization
[1] = target: RecQ WT (Escherichia coli, UniProt P15043 1-609)
[2] = target: RecQ R159L (Escherichia coli, UniProt P15043 1-609, R159L)
[3] = target: RecQ W154L (Escherichia coli, UniProt P15043 1-609, W154L)
[4] = target: RecQ F158L (Escherichia coli, UniProt P15043 1-609, F158L)

Measured: binding result

B1: oligo 1 ssDNA (30 nt) (ssDNA)
DNA: GCGTGGGTAATTGTGCTTCAATGGACTGAC
binds: all assays above
